Measurements as given in publication PMC2808332, “Expanding the Substantial Interactome of NEMO Using Protein Microarrays” (PLoS ONE, 2010).

B1: Chromosome 19 open reading frame 12 (natural protein, human, UniProt Q9NSK7-4 1-141, looked up)
chain: MTIMVEDIMKLLCSLSGERKMKAAVKHSGKGALVTGAMAFVGGLVGGPPGLAVGGAVGGLLGAWMTSGQFKPVPQILMELPPAEQQRLFNEAAAIIRHLEWTDAVQLTALVMGSEALQQQLLAMLVNYVTKELRAEIQYDD
notes: Chromosome 19 open reading frame 12, human; also called C19ORF12; source: insect cell/baculovirus, purified, spotted (Invitrogen Protoarray v4.0)
B2: Hemoglobin, zeta (natural protein, human, UniProt P02008 1-142, looked up)
chain: MSLTKTERTIIVSMWAKISTQADTIGTETLERLFLSHPQTKTYFPHFDLHPGSAQLRAHGSKVVAAVGDAVKSIDDIGGALSKLSELHAYILRVDPVNFKLLSHCLLVTLAARFPADFTAEAHAAWDKFLSVVSSVLTEKYR
notes: Hemoglobin, zeta, human; also called HBZ; source: insect cell/baculovirus, purified, spotted (Invitrogen Protoarray v4.0)
B3: DnaJ (Hsp40) homolog, subfamily C, member 8 (natural protein, human, UniProt O75937 1-253, looked up)
chain: MAASGESGTSGGGGSTEEAFMTFYSEVKQIEKRDSVLTSKNQIERLTRPGSSYFNLNPFEVLQIDPEVTDEEIKKRFRQLSILVHPDKNQDDADRAQKAFEAVDKAYKLLLDQEQKKRALDVIQAGKEYVEHTVKERKKQLKKEGKPTIVEEDDPELFKQAVYKQTMKLFAELEIKRKEREAKEMHERKRQREEEIEAQEKAKREREWQKNFEESRDGRVDSWRNFQANTKGKKEKKNRTFLRPPKVKMEQRE
notes: DnaJ (Hsp40) homolog, subfamily C, member 8, human; also called DNAJC8; source: insect cell/baculovirus, purified, spotted (Invitrogen Protoarray v4.0)
B4: PHD finger protein 7 (natural protein, human, UniProt Q9BWX1-1 1-381, looked up)
chain: MKTVKEKKECQRLRKSAKTRRVTQRKPSSGPVCWLCLREPGDPEKLGEFLQKDNISVHYFCLILSSKLPQRGQSNRGFHGFLPEDIKKEAARASRKICFVCKKKGAAINCQKDQCLRNFHLPCGQERGCLSQFFGEYKSFCDKHRPTQNIQHGHVGEESCILCCEDLSQQSVENIQSPCCSQAIYHRKCIQKYAHTSAKHFFKCPQCNNRKEFPQEMLRMGIHIPDRDAAWELEPGAFSDLYQRYQHCDAPICLYEQGRDSFEDEGRWCLILCATCGSHGTHRDCSSLRSNSKKWECEECSPAAATDYIPENSGDIPCCSSTFHPEEHFCRDNTLEENPGLSWTDWPEPSLLEKPESSRGRRSYSWRSKGVRITNSCKKSK
notes: PHD finger protein 7, human; also called PHF7; source: insect cell/baculovirus, purified, spotted (Invitrogen Protoarray v4.0)
B5: t-complex 10 (mouse)-like (natural protein, human, UniProt Q8TDR4 1-215, looked up)
chain: MLAGQLEARDPKEGTHPEDPCPGAGAVMEKTAVAAEVLTEDCNTGEMPPLQQQIIRLHQELGRQKSLWADVHGKLRSHIDALREQNMELREKLRALQLQRWKARKKSAASPHAGQESHTLALEPAFGKISPLSADEETIPKYAGHKNQSATLLGQRSSSNNSAPPKPMSLKIERISSWKTPPQENRDKNLSRRRQDRRATPTGRPTPCAERRGGV
notes: t-complex 10 (mouse)-like, human; also called TCP10L; source: insect cell/baculovirus, purified, spotted (Invitrogen Protoarray v4.0)
B6: Vesicle-associated membrane protein 3 (cellubrevin) (natural protein, human, UniProt Q15836 1-100, looked up)
chain: MSTGPTAATGSNRRLQQTQNQVDEVVDIMRVNVDKVLERDQKLSELDDRADALQAGASQFETSAAKLKRKYWWKNCKMWAIGITVLVIFIIIIIVWVVSS
notes: Vesicle-associated membrane protein 3 (cellubrevin), human; also called VAMP3; source: insect cell/baculovirus, purified, spotted (Invitrogen Protoarray v4.0)
B7: Family with sequence similarity 128, member A (natural protein, human, UniProt Q6P582 1-158, looked up)
chain: MAAQGVGPGPGSAAPPGLEAARQKLALRRKKVLSTEEMELYELAQAAGGGIDPDVFKILVDLLKLNVAPLAVFQMLKSMCAGQRLASEPQDPAAVSLPTSSVPETRGRDKGSAALGGVLALAERSNHEGSSQRMPRQPSATRLPKGGGPGKSPTQGST
notes: also called FAM128A; source: insect cell/baculovirus, purified, spotted (Invitrogen Protoarray v4.0)
B8: LIM and cysteine-rich domains 1 (natural protein, human, UniProt Q9NZU5-1 1-365, looked up)
chain: MAKVAKDLNPGVKKMSLGQLQSARGVACLGCKGTCSGFEPHSWRKICKSCKCSQEDHCLTSDLEDDRKIGRLLMDSKYSTLTARVKGGDGIRIYKRNRMIMTNPIATGKDPTFDTITYEWAPPGVTQKLGLQYMELIPKEKQPVTGTEGAFYRRRQLMHQLPIYDQDPSRCRGLLENELKLMEEFVKQYKSEALGVGEVALPGQGGLPKEEGKQQEKPEGAETTAATTNGSLSDPSKEVEYVCELCKGAAPPDSPVVYSDRAGYNKQWHPTCFVCAKCSEPLVDLIYFWKDGAPWCGRHYCESLRPRCSGCDEIIFAEDYQRVEDLAWHRKHFVCEGCEQLLSGRAYIVTKGQLLCPTCSKSKRS
notes: LIM and cysteine-rich domains 1, human; also called LMCD1; source: insect cell/baculovirus, purified, spotted (Invitrogen Protoarray v4.0)
B9: Adenine phosphoribosyltransferase (natural protein, human, UniProt P07741-1 1-180, looked up)
chain: MADSELQLVEQRIRSFPDFPTPGVVFRDISPVLKDPASFRAAIGLLARHLKATHGGRIDYIAGLDSRGFLFGPSLAQELGLGCVLIRKRGKLPGPTLWASYSLEYGKAELEIQKDALEPGQRVVVVDDLLATGGTMNAACELLGRLQAEVLECVSLVELTSLKGREKLAPVPFFSLLQYE
notes: Adenine phosphoribosyltransferase, human; also called APRT; source: insect cell/baculovirus, purified, spotted (Invitrogen Protoarray v4.0)
B10: Tumor protein, translationally-controlled 1 (natural protein, human, UniProt P13693 1-172, looked up)
chain: MIIYRDLISHDEMFSDIYKIREIADGLCLEVEGKMVSRTEGNIDDSLIGGNASAEGPEGEGTESTVITGVDIVMNHHLQETSFTKEAYKKYIKDYMKSIKGKLEEQRPERVKPFMTGAAEQIKHILANFKNYQFFIGENMNPDGMVALLDYREDGVTPYMIFFKDGLEMEKC
notes: Tumor protein, translationally-controlled 1, human; also called TPT1; source: insect cell/baculovirus, purified, spotted (Invitrogen Protoarray v4.0)
B11: Nucleolar protein family A, member 2 (natural protein, human, UniProt Q9NX24 1-153, looked up)
chain: MTKIKADPDGPEAQAEACSGERTYQELLVNQNPIAQPLASRRLTRKLYKCIKKAVKQKQIRRGVKEVQKFVNKGEKGIMVLAGDTLPIEVYCHLPVMCEDRNLPYVYIPSKTDLGAAAGSKRPTCVIMVKPHEEYQEAYDECLEEVQSLPLPL
notes: Nucleolar protein family A, member 2, human; also called NOLA2; source: insect cell/baculovirus, purified, spotted (Invitrogen Protoarray v4.0)
B12: Nucleosome assembly protein 1-like 5 (natural protein, human, UniProt Q96NT1 1-182, looked up)
chain: MADSENQGPAEPSQAAAAAEAAAEEVMAEGGAQGGDCDSAAGDPDSAAGQMAEEPQTPAENAPKPKNDFIESLPNSVKCRVLALKKLQKRCDKIEAKFDKEFQALEKKYNDIYKPLLAKIQELTGEMEGCAWTLEGEEEEEEEYEDDEEEGEDEEEEEAAAEAAAGAKHDDAHAEMPDDAKK
notes: Nucleosome assembly protein 1-like 5, human; also called NAP1L5; source: insect cell/baculovirus, purified, spotted (Invitrogen Protoarray v4.0)

What follows are binders tested against T1, NEMO (NF-κB essential modulator), tag-free, biotinylated (human, UniProt Q9Y6K9 1-419, biotin (in vitro biotinylation kit, biotin:NEMO molar ratio 9:1)) (assay: peptide or protein array; Invitrogen Protoarray v4.0, about 8,400 human proteins spotted on nitrocellulose-coated glass slides; 10 µg biotinylated tag-free NEMO in 120 µl probing buffer (PBS, 0.5 mM DTT, 5 mM MgCl2, 5% glycerol, 0.05% Triton X-100), 4°C, 1.5 h; bound NEMO detected with labelled streptavidin; hits Z-score > 3, hits of the biotin-GST control array subtracted). Settings: both partners purified.
T1 construct: NEMO, NF-κB essential modulator, human, 48 kDa; also called biotinylated NEMO; biotin-NEMO; source: E. coli BL21(DE3), purified (glutathione sepharose), GST removed with thrombin, biotinylated in vitro

| Binder | binding result |
| --- | --- |
| B1 | binds |
| B2 | binds |
| B3 | binds |
| B4 | binds |
| B5 | binds |
| B6 | binds |
| B7 | binds |
| B8 | binds |
| B9 | binds |
| B10 | binds |
| B11 | binds |
| B12 | binds |
